Molecular target: T1, NRF2-His (his-tag mouse NRF2) (mouse, UniProt Q60795 1-597)
T1 sequence (looked up): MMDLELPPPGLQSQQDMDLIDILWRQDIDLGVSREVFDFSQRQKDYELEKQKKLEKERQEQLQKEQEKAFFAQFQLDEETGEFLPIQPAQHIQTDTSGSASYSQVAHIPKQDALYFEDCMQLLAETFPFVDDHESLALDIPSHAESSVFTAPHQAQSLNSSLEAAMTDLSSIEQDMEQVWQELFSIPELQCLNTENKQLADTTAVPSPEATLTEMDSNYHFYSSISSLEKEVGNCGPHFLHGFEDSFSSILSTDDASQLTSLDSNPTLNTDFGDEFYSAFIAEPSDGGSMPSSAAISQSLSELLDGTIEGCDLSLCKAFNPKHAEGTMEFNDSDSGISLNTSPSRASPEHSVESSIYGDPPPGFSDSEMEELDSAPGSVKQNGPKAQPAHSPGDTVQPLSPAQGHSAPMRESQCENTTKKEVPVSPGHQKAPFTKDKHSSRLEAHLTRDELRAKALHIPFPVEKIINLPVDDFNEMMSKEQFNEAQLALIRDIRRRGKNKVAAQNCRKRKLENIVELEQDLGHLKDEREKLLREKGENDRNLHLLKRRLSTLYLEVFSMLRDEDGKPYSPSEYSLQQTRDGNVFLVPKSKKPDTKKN
Assay: pull-down

binding result: binds
B1: p53R245W-Flag (natural protein, mouse, UniProt P02340 1-390, looked up)
chain: MTAMEESQSDISLELPLSQETFSGLWKLLPPEDILPSPHCMDDLLLPQDVEEFFEGPSEALRVSGAPAAQDPVTETPGPVAPAPATPWPLSSFVPSQKTYQGNYGFHLGFLQSGTAKSVMCTYSPPLNKLFCQLAKTCPVQLWVSATPPAGSRVRAMAIYKKSQHMTEVVRRCPHHERCSDGDGLAPPQHLIRVEGNLYPEYLEDRQTFRHSVVVPYEPPEAGSEYTTIHYKYMCNSSCMGGMNWRPILTIITLEDSSGNLLGRDSFEVRVCACPGRDRRTEEENFRKKEVLCPELPPGSAKRALPTCTSASPPQKKKPLDGEYFTLKIRGRKRFEMFRELNEALELKDAHATEESGDSRAHSSYLKTKKGQSTSRHKKTMVKKVGPDSD

Reference: article PMC10866549 (Science Advances, 2024)
